Source: patent publication US20170189507A1, “NOVEL PEPTIDES AND COMBINATION OF PEPTIDES FOR USE IN IMMUNOTHERAPY AGAINST VARIOUS CANCERS” (immatics biotechnologies GmbH, priority 2015, published 2017)

How the values were obtained:
HLA-A*02 = HLA-A*02 (Homo sapiens, UniProt P04439, D140Y/D185E/D98H/E176V/E277Q/G131W/G231S/I119V/I121R/I166T/I218V/N151K/N90K/P208A/P217A/Q86G/Q94H/R138H/R169H); assay: MHC binding assay (UV-ligand exchange, beta2m ELISA), HLA-A*02; details: MHC class I binding score, peptide exchange yield
Excerpt: (§1) Candidate peptides for T cell based therapies according to the present invention were further tested for their MHC binding capacity (affinity). The individual peptide-MHC complexes were produced by UV-ligand exchange, where a UV-sensitive peptide is cleaved upon UV-irradiation, and exchanged with the peptide of interest as analyzed. Only peptide candidates that can effectively bind and stabilize the peptide-receptive MHC molecules prevent dissociation of the MHC complexes. To determine the yield of the exchange reaction, an ELISA was performed based on the detection of the light chain ([…] of stabilized MHC complexes. The assay was performed as generally described in Rodenko et al. (Rodenko et al., 2006).
(§2) 96 well MAXISorp plates (NUNC) were coated over night with 2 ug/ml streptavidin in PBS at room temperature, washed 4× and blocked for 1 h at 37° C. in 2% BSA containing blocking buffer. Refolded HLA-A*02:01/MLA-001 monomers served as standards, covering the range of 15-500 ng/ml. Peptide-MHC monomers of the UV-exchange reaction were diluted 100 fold in blocking buffer. Samples were incubated for 1 h at 37° C., washed four times, incubated with 2 ug/ml HRP conjugated anti-β2m for 1 h at 37° C., washed again and detected with TMB solution that is stopped with […]. Absorption was measured at 450 nm. Candidate peptides that show a high exchange yield (preferably higher than 50%, most preferred higher than 75%) are generally preferred for a generation and production of antibodies or fragments thereof, and/or T cell receptors or fragments thereof, as they show sufficient avidity to the MHC molecules and prevent dissociation of the MHC complexes.

CD8+ T cells = assay: In vitro immunogenicity: T-cell priming with aAPCs loaded with peptide/MHC complexes and anti-CD28 antibody, pMHC multimer readout; type: cell-based, human; details: for Wells positive [%]: in vitro immunogenicity of HLA class I peptides, peptide-specific multimer+ wells after aAPC priming of CD8+ T cells; for Wells (in vitro immunogenicity of HLA class I peptides): CD8+ T cells of healthy donors, three stimulation cycles, multimer staining, Table 19A
Method: In an aspect, the peptides are pre-screened for immunogenicity before being included in the warehouse. By way of example, and not limitation, the immunogenicity of the peptides included in the warehouse is determined by a method comprising in vitro T-cell priming through repeated stimulations of CD8+ T cells from healthy donors with artificial antigen presenting cells loaded with peptide/MHC complexes and anti-CD28 antibody.
In order to obtain information regarding the immunogenicity of the TUMAPs of the present invention, the inventors performed investigations using an in vitro T-cell priming assay based on repeated stimulations of CD8+ T cells with artificial antigen presenting cells (aAPCs) loaded with peptide/MHC complexes and anti-CD28 antibody.
In order to perform in vitro stimulations by artificial antigen presenting cells loaded with peptide-MHC complex (pMHC) and anti-CD28 antibody, the inventors first isolated CD8+ T cells from fresh HLA-A*02 leukapheresis products via positive selection using CD8 microbeads (Miltenyi Biotec, Bergisch-Gladbach, Germany) of healthy donors obtained from the University clinics Mannheim, Germany, after informed consent.
PBMCs and isolated CD8+ lymphocytes were incubated in T-cell medium (TCM) until use consisting of RPMI-Glutamax (Invitrogen, Karlsruhe, Germany) supplemented with 10% heat inactivated human AB serum (PAN-Biotech, Aidenbach, Germany), 100 U/ml Penicillin/100 μg/ml Streptomycin (Cambrex, Cologne, Germany), 1 mM sodium pyruvate (CC Pro, Oberdorla, Germany), 20 μg/ml Gentamycin (Cambrex). 2.5 ng/ml IL7 (PromoCell, Heidelberg, Germany) and 10 U/ml IL-2 (Novartis Pharma, Nurnberg, Germany) were also added to the TCM at this step.
Generation of pMHC/anti-CD28 coated beads, T-cell stimulations and readout was performed in a highly defined in vitro system using four different pMHC molecules per stimulation condition and 8 different pMHC molecules per readout condition.
The purified co-stimulatory mouse IgG2a anti human CD28 Ab 9.3 (Jung et al., 1987) was chemically biotinylated using Sulfo-N-hydroxysuccinimidobiotin as recommended by the manufacturer (Perbio, Bonn, Germany). Beads used were 5.6 μm diameter streptavidin coated polystyrene particles (Bangs Laboratories, Illinois, USA).
pMHC used for positive and negative control stimulations were A*0201/MLA-001 (peptide […] (SEQ ID NO. 303) from modified Melan-A/MART-1) and A*0201/DDX5-001 ([…] from DDX5, SEQ ID NO. 304), respectively.
800.000 beads/200 μl were coated in 96-well plates in the presence of 4×12.5 ng different biotin-pMHC, washed and 600 ng biotin anti-CD28 were added subsequently in a volume of 200 μl. Stimulations were initiated in 96-well plates by co-incubating […] CD8+ T cells with 2×10^5 washed coated beads in 200 μl TCM supplemented with 5 ng/ml IL-12 (PromoCell) for 3 days at 37° C. Half of the medium was then exchanged by fresh TCM supplemented with 80 U/ml IL-2 and incubating was continued for 4 days at 37° C. This stimulation cycle was performed for a total of three times. For the pMHC multimer readout using 8 different pMHC molecules per condition, a twodimensional combinatorial coding approach was used as previously described (Andersen et al., 2012) with minor modifications encompassing coupling to 5 different fluorochromes. Finally, multimeric analyses were performed by staining the cells with Live/dead near IR dye (Invitrogen, Karlsruhe, Germany), CD8-FITC antibody clone SK1 (BD, Heidelberg, Germany) and fluorescent pMHC multimers. For analysis, a BD LSRII SORP cytometer equipped with appropriate lasers and filters was used. Peptide specific cells were calculated as percentage of total CD8+ cells. Evaluation of multimeric analysis was done using the FlowJo software (Tree Star, Oregon, USA). In vitro priming of specific multimer+ CD8+ lymphocytes was detected by comparing to negative control stimulations.

HLA-A*24 = assay: MHC binding assay (UV-ligand exchange, beta2m ELISA), HLA-A*24; design: species or system human; details: MHC class I binding score, peptide exchange yield
Excerpt: as §1, §2

Substance	Peptide exchange (HLA-A*02)	other results
1 (LLYPEPWSV; listed as Homo sapiens) [compound 1]	++++ (>=75% = ++++)	
3 (KLEENGDLYL; listed as Homo sapiens) [compound 3]	++++ (>=75% = ++++)	
4 (KLMPGTYTL; listed as Homo sapiens) [compound 4]	++++ (>=75% = ++++)	Wells positive [%] (CD8+ T cells): + (<20% = +)
12 (GLLPLLHRA; listed as Homo sapiens) [compound 12]	++++ (>=75% = ++++)	Wells positive [%] (CD8+ T cells): ++++ (>=70% = ++++)
14 (ILAKDLFEI; listed as Homo sapiens) [compound 14]	++++ (>=75% = ++++)	
16 (YTLDIPVLFGV; listed as Homo sapiens) [compound 16]	++++ (>=75% = ++++)	
34 (FLLATEVVTV; listed as Homo sapiens) [compound 34]	++++ (>=75% = ++++)	
42 (LLDSVSRL; listed as Homo sapiens) [compound 42]	+ (<20% = +)	
51 (LLFSRLCGA; listed as Homo sapiens) [compound 51]	++++ (>=75% = ++++)	
82 (FIFDEAEKL; listed as Homo sapiens) [compound 82]	+ (<20% = +)	
84 (ALCPRIHEV; listed as Homo sapiens) [compound 84]	++++ (>=75% = ++++)	
92 (GLLFSLRSV; listed as Homo sapiens) [compound 92]	++++ (>=75% = ++++)	
95 (GLLGSLFFL; listed as Homo sapiens) [compound 95]	++++ (>=75% = ++++)	
100 (ALLGMIIVGV; listed as Homo sapiens) [compound 100]	+ (<20% = +)	
112 (SLGKFTFDV; listed as Homo sapiens) [compound 112]	++++ (>=75% = ++++)	
120 (VTPVTVSAV; listed as Homo sapiens) [compound 120]	+ (<20% = +)	
125 (SLADYEHFV; listed as Homo sapiens) [compound 125]	++++ (>=75% = ++++)	

Substance	Peptide exchange (HLA-A*02)	other results
158 (HYSQELSLLYL; listed as Homo sapiens) [compound 158]		Peptide exchange (HLA-A*24): ++++ (>=75% = ++++); Wells positive [%] (CD8+ T cells): + (<20% = +)
159 (LYNKGFIYL; listed as Homo sapiens) [compound 159]		Peptide exchange (HLA-A*24): ++++ (>=75% = ++++); Wells positive [%] (CD8+ T cells): ++++ (>=70% = ++++)
163 (DYLKGLASF; listed as Homo sapiens) [compound 163]		Peptide exchange (HLA-A*24): ++++ (>=75% = ++++); Wells positive [%] (CD8+ T cells): + (<20% = +)
165 (DYTTWTALL; listed as Homo sapiens) [compound 165]		Peptide exchange (HLA-A*24): ++++ (>=75% = ++++); Wells positive [%] (CD8+ T cells): + (<20% = +)
167 (NYINRILKL; listed as Homo sapiens) [compound 167]		Peptide exchange (HLA-A*24): ++++ (>=75% = ++++); Wells positive [%] (CD8+ T cells): + (<20% = +)
204 (TYELRYFQI; listed as Homo sapiens) [compound 204]		Peptide exchange (HLA-A*24): ++++ (>=75% = ++++); Wells positive [%] (CD8+ T cells): + (<20% = +)
290 (KIVDFSYSV; listed as Homo sapiens) [compound 290]		Wells (in vitro immunogenicity of HLA class I peptides) (CD8+ T cells): ++ (20%-49% = ++)
291 (KLDETGNSL; listed as Homo sapiens) [compound 291]		Wells (in vitro immunogenicity of HLA class I peptides) (CD8+ T cells): + (<20% = +)
292 (GMMTAILGV; listed as Homo sapiens) [compound 292]		Wells (in vitro immunogenicity of HLA class I peptides) (CD8+ T cells): + (<20% = +)
293 (FLVDGSWSI; listed as Homo sapiens) [compound 293]		Wells (in vitro immunogenicity of HLA class I peptides) (CD8+ T cells): + (<20% = +)
295 (YYPGVILGF; listed as Homo sapiens) [compound 295]		Wells (in vitro immunogenicity of HLA class I peptides) (CD8+ T cells): ++ (20%-49% = ++)
296 (TYVDSSHTI; listed as Homo sapiens) [compound 296]		Wells (in vitro immunogenicity of HLA class I peptides) (CD8+ T cells): + (<20% = +)
297 (PFLQASPHF; listed as Homo sapiens) [compound 297]		Wells (in vitro immunogenicity of HLA class I peptides) (CD8+ T cells): ++ (20%-49% = ++)
298 (RYLEGTSCI; listed as Homo sapiens) [compound 298]		Wells (in vitro immunogenicity of HLA class I peptides) (CD8+ T cells): + (<20% = +)
300 (AYVLRLETL; listed as Homo sapiens) [compound 300]		Wells (in vitro immunogenicity of HLA class I peptides) (CD8+ T cells): + (<20% = +)
301 (AYKPGALTF; listed as Homo sapiens) [compound 301]		Wells (in vitro immunogenicity of HLA class I peptides) (CD8+ T cells): + (<20% = +)

Further lines, with some results ahead:

Peptide exchange (HLA-A*02)	Substance	other results
++++ (>=75% = ++++)	126 (QMFQYFITV; listed as Homo sapiens) [compound 126]	
++++ (>=75% = ++++)	129 (RLQDILWFL; listed as Homo sapiens) [compound 129]	
++++ (>=75% = ++++)	133 (ALLPRLHQL; listed as Homo sapiens) [compound 133]	
++++ (>=75% = ++++)	147 (YLMDDTVEI; listed as Homo sapiens) [compound 147]	
++++ (>=75% = ++++)	153 (FISERVEVV; listed as Homo sapiens) [compound 153]	
++++ (>=75% = ++++)	229 (AILAHLNTV; listed as Homo sapiens) [compound 229]	
++++ (>=75% = ++++)	245 (SLLDLPLSL; listed as Homo sapiens) [compound 245]	
++++ (>=75% = ++++)	248 (YLDRFLAGV; listed as Homo sapiens) [compound 248]	
++++ (>=75% = ++++)	249 (GLCERLVSL; listed as Homo sapiens) [compound 249]	Wells positive [%] (CD8+ T cells): + (<20% = +)
++++ (>=75% = ++++)	257 (GLYTDPCGV; listed as Homo sapiens) [compound 257]	
++++ (>=75% = ++++)	258 (LLSERFINV; listed as Homo sapiens) [compound 258]	
